Reference: article PMC4368477

Biological target: HA head of H1N1 A/Solomon Islands/3/2006 (Influenza A virus, A/Solomon Islands/3/2006 (H1N1))
Assay: BLI

Q: CH65 Fab was tested. Which koff did it give?
A: Its koff is 0.013 s⁻¹.

Q: And the kon?
A: Its kon is 42900 M⁻¹ s⁻¹.
